Consider six molecules from patent US20250177548A1, “FUSOGENIC PEPTIDE COMPOSITIONS AND METHODS OF CARGO DELIVERY” (CLEMSON UNIVERSITY, priority 2022, published 2025).

Non-standard residues stand in square brackets, D forms with d. Primed or numbered codes have the meaning given here. No end group written: not given here. pG″ = pyro form of the N-terminal glycine (pyroglycine); pG = not defined here

A short description of series [1]: gel assay of siRNA protection from degradation in 50% serum. In kind it is in vitro ADME. The note with it: 50% FBS, 1 hour, several N:P ratios. As to the method: (§1) Gel Shift Assays. DIVA3, DIV3H, and DIV3W (all three denoted as DIV3 (X)) peptides suspended in RNase-free water (10 μM), were thawed, and kept on ice prior to complexation with 10 μM of negative control siGENOME non-targeting siRNA #5 (siNT, GE Healthcare Dharmacon, Lafayette, CO) in RNase-free water and incubated for 20 minutes at room temperature to allow the formation of DIV3 (X)-siNT complexes. Various molar ratios of peptides were complexed with siNT at increasing N:P molar ratios to determine the minimum molar ratio necessary to completely complex free siRNAs using an electrophoretic mobility shift assay. To determine the ability of each peptide variant to protect siRNAs from degradation, DIV3 (X)-siNT complexes or siNT alone was left untreated or incubated with either 50% v/v FBS or 5 μg/mL RNase A at 37° C. for one hour. Next, complexes were dissociated using 6% sodium dodecyl sulfate (SDS). Samples were added to a 2% agarose gel and run at 100 V. Gels were stained with ethidium bromide, destained with Milli-Q water, and imaged using a ChemiDoc XRS imager (Bio-Rad, Hercules, CA).
(§2) Characterization of Nanoparticle Size and Stability. To determine the minimum molar ratio necessary to completely complex free siRNAs, increasing N:P molar ratios of LHRH, DIV3W, and LHRH-DIV3W peptide were complexed with siRNAs and electrophoresed using a electrophoretic mobility shift assay. Molar ratios, shown as N:P, are representations of the molar amine peptide content in relation to 1 mole of phosphate group siRNA content. To determine the ability of the peptides to protect siRNAs from serum- or RNase-mediated degradation, LHRH and LHRH-DIV3W complexes were formed in RNase-free water with siNT at increasing N:P molar ratios and incubated at 37° C., 5% CO2, 50% v/v FBS, 5 μg/mL RNase A, or 50% v/v RNase free water for 1 hour. Peptide/siRNA complexes were dissociated using 6% sodium dodecyl sulfate (SDS) prior to electrophoresis in a 2% agarose gel run at 100 V. Gels were stained with ethidium bromide, washed with Milli-Q water, and imaged with a BioRad ChemiDoc XRS imager (BioRad, Hercules, CA).
(§3) Peptides VA-LD and GF-LD, comprising the cleavable linker VA or GLFG, respectively, between the LHRH target sequence and the DIV3W peptide, and non targeting siRNA were electrostatically complexed at increasing N:P ratios then subjected to agarose gel electrophoresis to determine optimal siRNA binding for each peptide. […] Peptide-siRNA nanocomplexes at increasing N:P ratios for peptides for VA-LD (FIG. 30A) and GF-LD (FIG. 30C) were incubated in either Rnase A enzyme or in 50% fetal bovine serum (FBS) for 1 h, dissociated using SDS then subjected to gel electrophoresis to visualize siRNA bands. Gels showing increasing N:P ratios of peptide:siRNA for VA-LD (FIG. 30B) and GF-LD (FIG. 30D) from 20:1 to 80:1 N:P; white bands are indicative of intact siRNA

In a further series the test system is RNase A. Briefly: gel assay of siRNA protection from RNase A degradation. In kind it is in vitro ADME. The note with it: 1 hour, several N:P ratios. As to the method: as §1, §2, §3
The nature of series [2]: dynamic light scattering, size and zeta potential of peptide/siRNA complexes. Format: physicochemical. The settings on record: for zeta potential: DIV3 (X) peptide/siRNA complexes. As to the method:
Dynamic Light Scattering and Transmission Electron Microscopy. DIV3 (X)-siNT complexes were prepared at 2 mg/mL in RNase-free water. Hydrodynamic size and surface charge of the peptide/siRNA complexes were determined using a Nano ZS Zetasizer (Malvern Pananalytical, Malvern, UK). All data were recorded using Malvern's Zetasizer software.
To determine nanoparticle size and zeta potential, peptides resuspended in RNase-free water (10 μM) were thawed and kept on ice prior to complexation with 10 μM of siNT in RNase-free water and incubated for 20 minutes at room temperature to form DIV3W-siNT and LHRH-DIV3W-siNT complexes. Peptide complexes were prepared at 2 mg/mL in RNase-free water. Hydrodynamic size and surface charge analysis was conducted using a Malvern Nano ZS Zetasizer (Malvern Panalytical, Malvern, UK). All data was analyzed using Malvern's Zetasizer software.

In series [3] the test system is OVCAR3 cells. The series can be described thus: cellular uptake of labeled siRNA by flow cytometry. In kind it is cell-based. The note with it: for uptake efficiency: OVCAR3, siNT-DY547, 4 hours; for uptake efficiency, tandem vs LHRH peptide: FIG. 10E, 4 hr, cell line not stated. On the procedure:
Cellular Uptake. OVCAR3 and CAOV3 cells were prepared at 50,000 cells per well in a 24-well plate. […] Post-incubation, media was aspirated and cells were washed with 1× PBS. To counterstain the nuclei, SuperSignal NucBlue Hoechst stain (Thermo Fisher, Waltham, MA) was added to the cells for 30 minutes, followed by an additional 1×PBS wash. Subsequent imaging was performed using an EVOS FL Microscope (Thermo Fisher) at 10× magnification. For flow cytometric analysis, cells were detached, resuspended in 1× PBS, and analyzed using an Attune NXT Acoustic flow cytometer (Invitrogen, Carlsbad, CA) with the blue laser line and BL2 (574/26 nm) channel.
Cellular Uptake and Targeting Specificity. Observation of cell uptake was performed by seeding OVCAR3 and CAOV3 cells at a density of 50,000 cells per well in a 24-well plate. LHRH and LHRH-DIV3W peptides were complexed with […] as previously described and delivered to cells at 20:1 to 80:1 N:P ratios. Each cell line was incubated with tandem peptide complexes for both 4- and 24-hour treatment periods. Following incubation, cell media was removed, and cells were washed with 1× PBS prior to the addition of 500 μL of 1×PBS and SuperSignal NucBlue Hoescht 33342 nuclear stain (Thermo Fisher, Waltham, MA). Cellular imaging was completed using an EVOS FL Microscope (Thermo Fisher) at 10×, 20×, and 40× magnification. Flow cytometry was completed after cell imaging and cells were trypsinized, resuspended in 1×PBS, and analyzed with an Attune NXT Acoustic Flow Cytometer (Invitrogen) with the red laser line and RL2 […] channel.
In general terms: Flow cytometry measures light scatter and fluorescence of single cells or particles in a stream.

A further series concerns CSNK2A1 mRNA. The series can be described thus: qPCR of CSNK2A1 mRNA in OVCAR3 cells. Format: cell-based. The note with it: OVCAR3, 48 hours. As to the method:
qRT-PCR. Cells were seeded at 50,000 cells per well and treated with siRNA targeting CSNK2A1 (siCSNK2A1 #s3638, Thermo Fisher Scientific) at increasing N:P ratios and incubated for a total of 48 hours in McCoys 5A/DMEM-10% FBS. Treated cells were washed with 1×PBS at 24 hours and fresh media was added. RNAisolation was completed using a Qiagen Mini-RNeasy Kit (Qiagen, Hilden, Germany) according to the manufacturer's protocol. RNA isolation quality and quantity were measured through the Gen5 protocol using a Take3 plate (BioTek). RNA was reverse-transcribed using the QuantiTect Reverse Transcription kit (Qiagen). Quantitative real-time PCR was completed with a QuantStudio 3 qPCR system (Applied Biosystems) using Applied Biosystems TaqMan FAST Master Mix (Thermo Fisher) and CSNK2A1 (ID #Hs00751002_s1) and 18S (ID #Hs99999901_s1) predesigned TaqMan probes, according to the manufacturer's protocol.
Gene and Protein Knockdown. Bioactivity of siRNAs was determined via qPCR and western blot analysis. OVCAR3 or CAOV3 cells were seeded at 50,000 cells per well as previously described and treated with siRNA targeting CSNK2A1 and siNT at N:P ratios 30:1, 40:1, 50:1, 60:1, and 70:1. LHRH-DIV3W peptide complexed with either siNT or siCSNK2A1 was incubated for a total of 48 hours in RPMI 1640/DMEM-10% FBS, with one media exchange occurring after the 24-hour timepoint. Treated cells were washed with 1×PBS at 24 hours and fresh media was added. RNA isolation was completed using a Qiagen Mini-RNeasy Kit (Qiagen, Hilden, Germany) according to the manufacturer's protocol. RNA isolation quality and quantity was measured through the Gen5 protocol using a Take3 plate (BioTek). RNA was reverse transcribed using the QuantiTect Reverse Transcription kit (Qiagen) according to the manufacturer's protocol. Quantitative real-time PCR was completed with a QuantStudio 3 qPCR system (Applied Biosystems, Waltham, MA) using Applied Biosystems TaqMan FAST Master Mix (Thermo Fisher) and CSNK2A1 (ID #Hs00751002_s1) and 18S (ID #Hs99999901_s1) predesigned TaqMan probes according to the manufacturer's protocol.
Background: In qPCR the cycle at which signal appears reflects the starting amount.

Series [4] concerns OVCAR3 cells.
Experimental: (§4) Cells were seeded at 10,000 cells per well with complete culture media in a 96-well plate and incubated overnight to allow the cells to attach. DIV3 (X) peptides were complexed with siNT at 40:1 to 80:1 N:P molar ratios. DIV3 (X)-siNT complexes were incubated with OVCAR3 or CAOV3 cells at a final concentration of 100 nM siRNA and 10% FBS for 24 hours. Media was then aspirated, cells were washed with 1× phosphate-buffered saline (PBS), and fresh media with 10% FBS was added to each well and incubated another 24 hours.
Viability was measured using an MTS Assay performed with CellTiter 96 AQueous One Solution Cell Proliferation Assay (Promega, Madison, WI). Assay reagent was added according to the manufacturer's protocol, and cells were incubated for 4 hours. Absorbance was read using a BioTek Synergy LX (BioTek, Winooksi, VT) plate reader at 490 nm. An MTS cell viability assay was also conducted as described for OVCAR3 and CAOV3 cells treated with DIV3W-siRNA complexes.
OVCAR3 or CAOV3 cells were seeded at 10,000 cells per well with complete culture media in a transparent 96-well plate and incubated overnight to allow the cells to attach. LHRH and LHRH-DIV3W peptides were delivered to cells without siRNA cargo. After 24 hours of incubation the media was exchanged and after another 24-hour incubation at 37° C. in 5% CO2, viability was measured using an MTS Assay performed with the CellTiter 96 AQueous One Solution Assay (Promega, Madison, WI). Assay reagent was added according to the manufacturer's protocol and cells were incubated for 4 hours. Absorbance was read using a BioTek Synergy LX (BioTek, Winooksi, VT) plate reader at 490 nm.
For series [5], the system named is ES2 ovarian cancer cells. The series can be described thus: cellular uptake of cy5 siRNA, microscopy and flow cytometry. Format: cell-based, human. The settings on record: ES2, 4 hours, N:P ratios of 20:1-40:1. As to the method: Peptides, VA-LD and GF-LD, and cy5 labeled non targeting siRNA were electrostatically complexed at increasing N:P ratios and delivered to human ovarian ES2 cells for 4 hours.

In series [6] the test system is ES2 ovarian cancer cells.
Experimental: VA-LD and GF-LD peptides were electrostatically complexed with and non targeting siRNA at increasing N:P ratios. Complexes were delivered to human ovarian ES2 cells for 48 hours and analyzed via MTS assay.
Series [7] concerns the target T1, luteinizing hormone releasing hormone (LHRH) receptor (UniProt P30968 1-328, limits assumed).
T1 sequence (looked up): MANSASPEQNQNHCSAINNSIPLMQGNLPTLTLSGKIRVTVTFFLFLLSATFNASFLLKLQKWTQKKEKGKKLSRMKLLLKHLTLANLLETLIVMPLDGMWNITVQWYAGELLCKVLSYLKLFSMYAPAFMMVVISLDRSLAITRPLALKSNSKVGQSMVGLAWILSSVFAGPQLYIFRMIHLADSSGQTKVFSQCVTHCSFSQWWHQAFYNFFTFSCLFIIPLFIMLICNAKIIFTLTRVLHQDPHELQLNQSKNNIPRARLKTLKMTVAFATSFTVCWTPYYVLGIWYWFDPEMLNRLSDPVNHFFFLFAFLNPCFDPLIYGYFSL
The series can be described thus: cell-based or functional assay.

Experimental for CAOV3 cells: as §4
Viability was measured using an MTS Assay performed with CellTiter 96 AQueous One Solution Cell Proliferation Assay (Promega, Madison, WI). Assay reagent was added according to the manufacturer's protocol, and cells were incubated for 4 hours. Absorbance was read using a BioTek Synergy LX (BioTek, Winooksi, VT) plate reader at 490 nm. […]
OVCAR3 or CAOV3 cells were seeded at 10,000 cells per well with complete culture media in a transparent 96-well plate and incubated overnight to allow the cells to attach. […] After 24 hours of incubation the media was exchanged and after another 24-hour incubation at 37° C. in 5% CO2, viability was measured using an MTS Assay performed with the CellTiter 96 AQueous One Solution Assay (Promega, Madison, WI). […] Absorbance was read using a BioTek Synergy LX (BioTek, Winooksi, VT) plate reader at 490 nm.

As for “WEADIVADIVADIVAGGG-(d) RRRRRRRRR (WEADIVADIVADIVAGGG[dR][dR][dR][dR][dR][dR][dR][dR][dR]) [DIVA3]”, the “intact siRNA after incubation in 50% serum” value (shortened to “intact siRNA … in 50% serum”) in series [1] is “Reduction of intact siRNA signal”. The “intact siRNA after incubation with RNase A” value (shortened to “intact siRNA … with RNase A”) in the series on RNase A was “Reduction of intact siRNA signal”. In addition, in series [2], the zeta potential is approximately 20 mV. The same molecule returned an uptake efficiency in the series on OVCAR3 cells [3] (80:1) of 63.6%. Also, the “CSNK2A1 mRNA silencing (knockdown)” value in the series with CSNK2A1 mRNA (60:1, vs siNT complex) turned out to be 47%.

“WEADIVADIVHDIVADIVAGGG-(d) RRRRRRRRR (WEADIVADIVHDIVADIVAGGG[dR][dR][dR][dR][dR][dR][dR][dR][dR]) [DIV3H]”: the “intact siRNA … in 50% serum” value in series [1] is “Reduction of intact siRNA signal”. Further, the hydrodynamic diameter result in [2] (DIV3 (X) peptide/siRNA complex at 60:1 ratio) is listed as “around 100 nm”. Besides, the zeta potential in [2] is on record as approximately 30 mV. In the series with OVCAR3 cells [3] (80:1), the uptake efficiency was 52.1%. Moreover, the “CSNK2A1 mRNA silencing (knockdown)” value in the series with CSNK2A1 mRNA (80:1, vs siNT complex) is listed as 72%.

Take “pGHWSY-(d) L-LRP ([pG]HWSY[dL]LRP; reading uncertain) [LHRH, reference compound]”: the figures for the “uptake efficiency, tandem vs LHRH peptide” value in the series on OVCAR3 cells [3] (40:1), in the series with OVCAR3 cells [3] (60:1) and with OVCAR3 cells [3] (80:1) were 34.3%±0.56%, 34.83%±2.75% and 33.87%±1.63%, respectively. Moreover, the “cytotoxicity of peptide alone” value in the series on OVCAR3 cells [4] and in the series with CAOV3 cells was “biocompatibility” each time.

For “pGHWSY-LLRPGGGGFLGWEADIVADIVWDIVADIVAGGG-RRRRRRRRR ([pG]HWSY[dL]LRPGGGGFLGWEADIVADIVWDIVADIVAGGG[dR][dR][dR][dR][dR][dR][dR][dR][dR]; reading uncertain) [GF-LD]”, the “intact siRNA … in 50% serum” value in series [1] is given as “protect siRNA in physiologically relevant environments”. The “intact siRNA … with RNase A” value in the series with RNase A is given as “protect siRNA in physiologically relevant environments”. The “delivery of cy5 siRNA” value with ES2 ovarian cancer cells [5] is “deliver siRNA to ES2 ovarian cancer cells”. Moreover, in the series on ES2 ovarian cancer cells [6], the “biocompatibility of peptide/non-targeting siRNA complexes” value is “biocompatible”.

In the case of “pGHWSY-LLRPGGGVAWEADIVADIVWDIVADIVAGGG-RRRRRRRRR ([pG]HWSY[dL]LRPGGGVAWEADIVADIVWDIVADIVAGGG[dR][dR][dR][dR][dR][dR][dR][dR][dR]; reading uncertain) [VA-LD]”, the “intact siRNA … in 50% serum” value in [1] is given as “protect siRNA in physiologically relevant environments”. Moreover, the “intact siRNA … with RNase A” value in the series on RNase A is “protect siRNA in physiologically relevant environments”. Further, the “delivery of cy5 siRNA” value with ES2 ovarian cancer cells [5] was “deliver siRNA to ES2 ovarian cancer cells”. For the same molecule, in the series with ES2 ovarian cancer cells [6], the “biocompatibility of peptide/non-targeting siRNA complexes” value is on record as “biocompatible”.

B1: LHRH-DIV3W tandem peptide (peptide)
peptide: [pG″]HWSY[dL]LRPGGGGGWEADIVADIVWDIVADIVAGGG[dR][dR][dR][dR][dR][dR][dR][dR][dR]
Take B1: the “cell viability (MTS), OVCAR3 cells, peptide without siRNA at the 20:1 ratio” value in [7] was found to be 110%.
